{
  "source": "paper doi:10.1101/2025.11.15.688623",
  "key": {"[1]": {"target": "AccA3 (biotin carboxylase subunit with C-terminal BCCP domain) (Mycobacterium smegmatis (endogenous in M. smegmatis))", "experiment": "cryo-EM structure"}, "[2]": {"target": "AccE5 (ε-subunit) (Mycobacterium smegmatis (endogenous in M. smegmatis))", "experiment": "cryo-EM structure"}},
  "data": [
    {"substance": "AccA3 (biotin carboxylase subunit with C-terminal BCCP domain) (enzyme)", "values": [
      {"measurement": "stoichiometry N", "setting": "[1]", "value": 4}
    ]},
    {"substance": "AccE5 (ε-subunit) (natural protein)", "values": [
      {"measurement": "stoichiometry N", "setting": "[2]", "value": 2}
    ]}
  ]
}
